What is called EC50 is the concentration that produces a half-maximal response. Broadly, the EC50 (read off the curve) is the concentration at which the effect is half-maximal.

Read-outs that look alike come from different tables or passages of the source.

Assay [1] has as its target T1, recombinant human tau, isoform Tau-F of 441 aa (hTau40) (human, UniProt P10636 1-758).
T1 construct: Bought from rPeptide (Bogart, GA, USA); coated on ELISA plates, blotted, or spotted as overlapping peptides; also called full-length tau; rTau
Briefly: direct ELISA on coated recombinant tau (rTau).

The target of assay [2] is T2, PHFTau (paired helical filaments containing pathologically phosphorylated tau filaments, extracted from AD … (human, UniProt P10636-8 1-441, limits assumed, pathologically phosphorylated (sites of the preparation not listed), aggregated filaments)).
T2 construct: Brain extract, not a single defined isoform; also called human PHF tau; pathologically modified PHFTau
T2 sequence (P10636 other isoform, or with tags, fused parts or gaps limits assumed): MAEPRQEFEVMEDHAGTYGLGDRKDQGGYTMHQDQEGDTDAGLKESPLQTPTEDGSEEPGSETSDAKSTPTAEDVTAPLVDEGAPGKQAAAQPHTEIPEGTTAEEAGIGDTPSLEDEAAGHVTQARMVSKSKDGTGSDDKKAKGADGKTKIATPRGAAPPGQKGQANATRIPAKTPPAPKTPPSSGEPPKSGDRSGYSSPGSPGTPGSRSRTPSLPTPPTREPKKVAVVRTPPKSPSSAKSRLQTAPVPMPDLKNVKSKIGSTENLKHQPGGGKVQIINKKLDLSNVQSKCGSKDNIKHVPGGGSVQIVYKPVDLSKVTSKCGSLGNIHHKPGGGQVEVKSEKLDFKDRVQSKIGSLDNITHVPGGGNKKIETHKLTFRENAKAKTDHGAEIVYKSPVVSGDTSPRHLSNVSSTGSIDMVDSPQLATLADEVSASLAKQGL
Briefly: direct ELISA on coated PHFTau. (In general: An ELISA detects its analyte on a solid surface through an enzyme-linked reagent.)

Assay [3] deals with T1, recombinant human tau, isoform Tau-F of …. Nature of the assay: ELISA on recombinant Tau, absorbance at 450 nm.
The target is the same in assay [4]. Briefly: ELISA on recombinant Tau, absorbance at 450 nm. The source holds these as a separate data set.

T1 sequence (P10636 other isoform, or with tags, fused parts or gaps limits assumed): as above

B1: recombinant human antibody NI-105.39E2 (germlined) (antibody, human IgG1, V domains shown)
VH: EVQLVESGGGLVQPGGSLRLSCAASGFTFSAYGMNWVRQAPGKGLEWVAHITGSGTPIFYADSVKGRFTISRDNAKSSLYLQMNSLRNDDTALYFCVRGTVDYWGQGTLVTVSS
VL: QAGLTQPPSVSKDLRQTATLTCSGNSNNVGNQGAAWLQQFPGHPPKLLFYENINRPSGISERFSASRSGNTASLTITGLQPEDEADYYCSAWDGHLNAWVFGGGTKLTVL
notes: Complete recombinant human IgG1 by the methods
With B1, the EC50 in assay [1] is 0.7 nM.

B2: recombinant human antibody NI-105.26B12 (germlined) (antibody, human IgG1, V domains shown)
VH: QVQLVESGGGVVQPGRSLRLSCAASGFTFTRYGMHWVRQAPGKGLEWVAVIWYDGTNKYYADSLQGRFTISRDTSTNTLYLQMNGLRVEDRAVYYCAREGFQGAIDYWGQGTLVTVSS
VL: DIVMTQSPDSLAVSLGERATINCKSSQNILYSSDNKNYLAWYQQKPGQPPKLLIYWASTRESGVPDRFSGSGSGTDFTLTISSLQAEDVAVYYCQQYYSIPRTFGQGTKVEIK
notes: as for B1
For B2, the EC50 in assay [1] turned out to be 2.9 nM.

B3: recombinant human antibody NI-105.9C4 (germlined) (antibody, human IgG1, V domains shown)
VH: QVQLVQSGAEVKKPGASVKVSCKASGYIFTAFFMHWVRQAPGQGLEWMGWINPDSGATKYAHNFQGRVTMTRDTSISTAFMELSGLKSDDTGVYYCATGMAVTGNFWGQGTLVTVSS
VL: SYELTQPPSVSVSPGQTARITCSGDVLAETYARWFQQKPGQAPVLVMYRDRERPAGIPERFSGSSSGNTVTLTISGAQAEDEAVYHCHSVADNNLDWVFGGGTKLTVL
notes: Complete human IgG1 by the methods
For B3, the EC50 in assay [1] is 5.2 nM.

B4: recombinant human antibody NI-105.19C6 (germlined) (antibody, human IgG1, V domains shown)
VH: EVQLVQSGAEVKKPGESLKISCKASGYSFISYWVGWVRQMPGKGLEWMGIIYPGDSDTRYSPSFEGQVSISADKSISTAYLQWTSLKASDTAMYYCARHWGPAAVTDSPWFGPWGQGTLVTVSS
VL: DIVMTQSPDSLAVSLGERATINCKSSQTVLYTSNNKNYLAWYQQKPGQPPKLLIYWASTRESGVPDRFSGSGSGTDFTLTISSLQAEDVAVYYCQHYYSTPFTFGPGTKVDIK
notes: as for B1
On to B4, for which, in assay [1], the concentration giving a half-maximal response (EC50) came to 4 nM.

B5: recombinant human antibody NI-105.22E1 (germlined) (antibody, human IgG1, V domains shown)
VH: EVQLVQSGAEVKKPGESLKISCKGSGYRFTTYWIGWVRQMPGKGLEWMGIIYPGDSDTRYSPSYQGQVTISADKSISTAYLQWSSLKASDTGMYYCARVAGDIGYENYYYYGMDVWGQGTTVTVSS
VL: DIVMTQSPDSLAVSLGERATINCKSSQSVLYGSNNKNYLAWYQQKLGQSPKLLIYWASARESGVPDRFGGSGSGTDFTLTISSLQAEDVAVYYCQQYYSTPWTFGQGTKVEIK
notes: as for B1
For B5, the EC50 in assay [1] was found to be 1.1 nM.

B6: recombinant human antibody NI-105.14E2 (germlined) (antibody, human IgG1, V domains shown)
VH: EVQLVQSGAEVKKPGDSLRISCKASGYNFPNYWIGWVRQMPGKGLEWMGIIYPGDSDIRYSPSFQGHVTISSDKSITTAYLQWTSLKVADSAMYYCARVERPDKGGWFGPWGQGTLVTVSS
VL: DIVMTQSPDSLAVSLGERATINCKSSQTLLYTSNNQNYLAWYQHKPGQPPKVLIYWASTREYGVPDRFSGSGSGTDFTLTISSLQPEDVAVYYCQQYYNSPYTFGQGTKLEIK
notes: as for B1
In the case of B6, the EC50 in assay [1] is 0.65 nM.

B7: recombinant human antibody NI-105.60E7 (germlined) (antibody, human IgG1, V domains shown)
VH: EVQLVESGGGFVRPGGSITLSCATSGFTFTKAWMTWVRQAPVKGLEWIGHIKTRIEGATTDYAAPVEGRFTISRDDSKNMVYLQMNSLKTEDSGIYYCSTDFDYWGQGTLVTVSS
VL: DVVMTQSPLSLPVTLGQPASISCTSSQSLLYSDGNTYLNWFQQRPGQSPRRLMYKVSKRDPGVPDRFSGSGSGTDFTLSISRVEAEDVGVYYCMQGSLWPRYTFGQGTKVEIK
notes: as for B1
Regarding B7, the EC50 in assay [1] worked out at 0.18 nM.

B8: recombinant human antibody NI-105.6L9 (germlined) (antibody, human IgG1, V domains shown)
VH: EVQLVESGGGLVQPGGSLRLSCAGTRFTFSTYAMGWVRQAPGRGLEWVSAIGGSGDSTSYADSVKGRFTISRDNSKNTLYLQMNSLRAEDTAVYYCAKGVYDYLWGSYRLFDYWGQGTLVTVSS
VL: SYVLTQPPSVSVAPGQTARFTCGGNNIASKSVHWYQQKPGQAPVLVVYDDSDRPSRIPERFSGSNSGNTATLTISRVEAGDEADYYCQVWDSTSDHVVFGGGTKLTVL
notes: as for B1
For the molecule B8, in assay [1], the 50% effective concentration (EC50) amounted to 2.5 nM.

B9: recombinant human antibody NI-105.29G10 (germlined) (antibody, human IgG1, V domains shown)
VH: EVQLVESGGDLVQPGGSLRLSCAASGFDFSGYSMAWVRQAPGKGLEWVSYISGTYVSGGTGTMYYLDSVKGRFFISRDDATSSLYLQMDSLRDEDTAVYYCARVYDYGEDWGQGTLVTVSS
VL: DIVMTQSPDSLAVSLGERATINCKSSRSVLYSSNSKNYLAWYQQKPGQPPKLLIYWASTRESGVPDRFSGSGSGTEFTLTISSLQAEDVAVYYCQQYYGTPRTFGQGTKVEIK
notes: as for B1
For the molecule B9, the half-maximal effective concentration (EC50) amounted to 5.3 nM in assay [2] and 3.8 nM in assay [1].

B10: recombinant human antibody NI-105.12E12 (germlined) (antibody, human IgG1, V domains shown)
VH: EVQLVESGGGLVQPGGSLKLSCAASGFSFSDSAFHWARQASGKGLEWVGRIRSKGNNYATAYAASVKGRFTVSRDDSKNTTYLQMNSLKTDDTAIYYCTRQGPSYGGINWGLGTLVTVSS
VL: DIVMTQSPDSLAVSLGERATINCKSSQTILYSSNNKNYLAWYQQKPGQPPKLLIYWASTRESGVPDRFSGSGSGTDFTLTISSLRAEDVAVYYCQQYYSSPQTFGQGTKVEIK
notes: as for B1
As to B10, the EC50 in assay [1] was found to be 28.6 nM.

B11: ch17C1(N31Q, I48V) mIgG2a (antibody, V domains shown)
VH: EVQLVQSGAEVKKPGESLKISCKAFGYSFTNFWIGWVRQVPGKGLEWVGIIYPGDSDTRYSPSFQGQVTISADKSIDTAYLQWGHLKASDSAMYFCARRGFWTGSQIEYWGQGTQVTVSS
VL: QSALTQPPSASGSPGHSVTISCTGTSSDVGQYSFVSWYQQYPGKAPKVIIYDVSKRSSGVPDRFFGSKSANTASLTVSGVQEEDEADYFCSSYGGSKYPWVFGGGTKLTVLG
notes: The sentence giving the chains names the antibody 'ch17C1(N31Q) mIgG2a' but lists the (N31Q, I48V) light chain
For B11, in assay [3], the “EC50 (read off the curve)” value is roughly 0.3 µg/mL.

B12: recombinant human antibody NI-105.17C1 (not germlined, as used in Table 7) (antibody, human IgG1, V domains shown)
VH: EVQLVQSGAEVKKPGESLKISCKAFGYSFTNFWIGWVRQVPGKGLEWVGIIYPGDSDTRYSPSFQGQVTISADKSIDTAYLQWGHLKASDSAMYFCARRGFWTGSQIEYWGQGTLVTVSS
VL: QSALTQPPSASGSPGHSVTISCTGTSSDVGNYSFVSWYQQYPGKAPKVIIYDVSKRSSGVPDRFFGSKSANTASLTVSGVQEEDEADYFCSSYGGSKYPWVFGGGTKLTVL
notes: as for B3
Turning to B12, the EC50 in assay [2] is 4.7 nM; in assay [1], 3.3 nM.

B13: chimeric NI-105.17C1 (ch17C1), mouse IgG2a/lambda (antibody, V domains shown)
VH: EVQLVQSGAEVKKPGESLKISCKAFGYSFTNFWIGWVRQVPGKGLEWVGIIYPGDSDTRYSPSFQGQVTISADKSIDTAYLQWGHLKASDSAMYFCARRGFWTGSQIEYWGQGTQVTVSS
VL: QSALTQPPSASGSPGHSVTISCTGTSSDVGNYSFVSWYQQYPGKAPKIIIYDVSKRSSGVPDRFFGSKSANTASLTVSGVQEEDEADYFCSSYGGSKYPWVFGGGTKLTVLG
modifications: N-glycan on Asn-31 (CDR1), fully occupied on CHO expression
notes: also called ch17C1-mIgG2a
Regarding B13, the “EC50 (read off the curve)” value in assay [4] is roughly 0.8 µg/mL.

B14: ch17C1(N31Q) mIgG1 Agly (antibody)
heavy: EVQLVQSGAEVKKPGESLKISCKAFGYSFTNFWIGWVRQVPGKGLEWVGIIYPGDSDTRYSPSFQGQVTISADKSIDTAYLQWGHLKASDSAMYFCARRGFWTGSQIEYWGQGTQVTVSSAKTTPPSVYPLAPGSAAQTNSMVTLGCLVKGYFPEPVTVTWNSGSLSSGVHTFPAVLQSDLYTLSSSVTVPSSTWPSETVTCNVAHPASSTKVDKKIVPRDCGCKPCICTVPEVSSVFIFPPKPKDVLTITLTPKVTCVVVDISKDDPEVQFSWFVDDVEVHTAQTQPREEQFQSTFRSVSELPIMHQDWLNGKEFKCRVNSAAFPAPIEKTISKTKGRPKAPQVYTIPPPKEQMAKDKVSLTCMITDFFPEDITVEWQWNGQPAENYKNTQPIMDTDGSYFVYSKLNVQKSNWEAGNTFTCSVLHEGLHNHHTEKSLSHSPGK
light: QSALTQPPSASGSPGHSVTISCTGTSSDVGQYSFVSWYQQYPGKAPKIIIYDVSKRSSGVPDRFFGSKSANTASLTVSGVQEEDEADYFCSSYGGSKYPWVFGGGTKLTVLGQPKSSPSVTLFPPSSEELETNKATLVCTITDFYPGVVTVDWKVDGTPVTQGMETTQPSKQSNNKYMASSYLTLTARAWERHSSYSCQVTHEGHTVEKSLSRADCS
notes: Aglycosylated Fc; also called ch17C1-mIgG1-Agly; ch17C1 Agly
As to B14, the “EC50 (read off the curve)” value in assay [4] is roughly 0.9 µg/mL.

For the origin of these results see patent US20200262895A1 (Biogen, published 2020).
